“Also recorded” adds a separate entry of the source. Where two headings read alike, the source gives them in different places. Marks after values point to notes of the source that are not given here.
Legend:
[1] = system: Exiguobacterium undea (DSM14481); experiment: Lysozyme activity turbidity assay (optical density drop at 540 nm); type: biochemical, Exiguobacterium undae
[2] = system: Clostridium perfringens DSM756; type: cell-based; conditions: for Diameter of clearing zone (mm): lysozymes 100 μg/ml, Bacitracin zinc salt 50 μg/ml
[3] = Thermostability by Differential Scanning Calorimetry (DSC); type: physicochemical; conditions: 50 mM Na-acetate, DSC 200 K/hour
[4] = In vivo piglet trial (growth performance); parameters: species or system weaned piglets (Large-White x Redon); conditions: for ADFI (g/d), Mean / ADWG (g/d), Mean / FCR, Mean: SEQ ID NO: 257 50 mg/kg feed, VevoVital 5000 mg/kg feed; for ADFI, % relative NC / ADWG, % relative NC / FCR, % relative NC: relative to negative control
[5] = In vivo broiler trial (growth performance)
[6] = system: Micrococcus lysodeikticus ATTC No. 4698; experiment: Lysozyme activity turbidity assay (optical density drop at 540 nm)
[7] = system: M. lysodeikticus substrate; experiment: Temperature stability: residual activity by OD drop after heat treatment; conditions: for Residual activity (%): OD drop pH 6
[8] = Finisher (d 36-42), SEQ ID NO: 257 25 mg/kg feed, Avilamycin 10 mg/kg
[9] = Finisher (d 36-42), relative to unsupplemented control
[10] = Grower (d 22-36), SEQ ID NO: 257 25 mg/kg feed, Avilamycin 10 mg/kg
[11] = Grower (d 22-36), relative to unsupplemented control
[12] = Starter (d 1-22), SEQ ID NO: 257 25 mg/kg feed, Avilamycin 10 mg/kg
[13] = Starter (d 1-22), relative to unsupplemented control
[14] = Whole period (day 1 to day 42), SEQ ID NO: 257 25 mg/kg feed, Avilamycin 10 mg/kg
[15] = Whole period, relative to unsupplemented control

B1: SEQ ID NO: 257: mature GH24 lysozyme from Trichophaea saccata, comprising a GH24 domain and a lysozyme enhancing domain (LED) (protein, listed as Trichophaea saccata)
chain: YPVKTDLHCRSSPSTSASIVRTYSSGTEVQIQCQTTGTSVQGSNVWDKTQHGCYVADYYVKTGHSGIFTTKCGSSSGGGSCKPPPINAATVALIKEFEGFVPKPAPDPIGLPTVGYGHLCKTKGCKEVPYSFPLTQETATKLLQSDIKTFTSCVSNYVKDSVKLNDNQYGALASWAFNVGCGNVQTSSLIKRLNAGENPNTVAAQELPKWKYAGGKVMPGLVRRRNAEVALFKKPSSVQAHPPKC
modifications: mat_peptide (1)..(245)
[1]; OD drop assay
  Lysozyme activity against Exiguobacterium undea (in words): good activity
[1]; assay pH 6
  Lysozyme Activity against Exiguobacterium undae as measured by Optical Density Drop: ++
[2]; Experiment 1, 1/2 MHB pH 6
  Diameter of clearing zone (mm): 11 mm
[2]; Experiment 1, 1/10 MHB pH 7
  Diameter of clearing zone (mm): 9 mm
[2]; Experiment 2, 1/10 MHB pH 7
  Diameter of clearing zone (mm): 8 mm
[2]; RDA, tested conditions (1/10 MHB pH 7 and 1/2 MHB pH 6)
  Antimicrobial activity against Clostridium perfringens (in words): significant activity; also recorded: showed antimicrobial activity
[3]; pH 4.5
  Denaturation Temperature Td (° C.): 70.0 °C
[3]; pH 5.5
  Denaturation Temperature Td (° C.): 70.8 °C
[3]; pH 6.5
  Denaturation Temperature Td (° C.): 69.7 °C
[4]; day 0-14
  ADFI (g/d), Mean: 333 g/day
  ADWG (g/d), Mean: 265 g/day
  FCR, Mean: 1.272^b
  ADFI, % relative NC: 92.5%
  ADWG, % relative NC: 91.4%
  FCR, % relative NC: 102.6%
[4]; day 0-42
  ADFI (g/d), Mean: 740^b g/d
  ADWG (g/d), Mean: 538 g/day
  FCR, Mean: 1.379^a
  ADFI, % relative NC: 100.8%
  ADWG, % relative NC: 107.8%
  FCR, % relative NC: 92.9%
[4]; day 14-42
  ADFI (g/d), Mean: 944^c g/d
  ADWG (g/d), Mean: 674 g/day
  FCR, Mean: 1.404^a
  ADFI, % relative NC: 101.5%
  ADWG, % relative NC: 111.8%
  FCR, % relative NC: 90.9%
[4]; overall period (day 0 to day 42), lysozyme 50 mg/kg, VevoVital 5000 mg/kg
  Improvement on FCR compared to the negative control: 7.1%
[4]; starter period (days 14-42)
  Improvement of ADWG compared to NC: 11.8%
[4]; starter period, from day 15 to day 42, SEQ ID NO: 257 50 mg/kg, VevoVital (PC)
  Improvement to FCR compared to NC: 9.1%
[4]; whole period (day 0 to day 42)
  Improvement of ADWG compared to NC: 7.8%
[5]; [8]
  FCR: 1.919
  Feed intake (g/b): 1524 g/b
  Weight gain (g/b): 800 g/b
[5]; [9]
  FCR, Relative to C (%): 97.9%
  Feed intake, Relative to C (%): 102.5%
  Weight gain, Relative to C (%): 105.1%
[5]; [10]
  FCR: 1.714
  Feed intake (g/b): 2336 g/b
  Weight gain (g/b): 1364 g/b
[5]; [11]
  FCR, Relative to C (%): 99.5%
  Feed intake, Relative to C (%): 102.2%
  Weight gain, Relative to C (%): 102.7%
[5]; [12]
  FCR: 1.414
  Feed intake (g/b): 1603 g/b
  Weight gain (g/b): 1133 g/b
[5]; [13]
  FCR, Relative to C (%): 98.1%
  Feed intake, Relative to C (%): 101.6%
  Weight gain, Relative to C (%): 103.4%
[5]; [14]
  EPEF: 425
  FCR: 1.657
  Feed intake (g/b): 5450 g/b
  Motality: 10.0
  Weight gain (g/b): 3290 g/b
[5]; [15]
  EPEF, Relative to C (%): 101.7%
  FCR, Relative to C (%): 98.6%
  Feed intake, Relative to C (%): 101.9%
  Weight gain, Relative to C (%): 103.3%
[5]; whole period, GH24 lysozyme 25 mg/kg
  EPEF improvement compared to NC diet: 1.7%
[5]; whole period, GH24 lysozyme 25 mg/kg, Avilamycin 10 mg/kg
  FCR improvement compared to NC diet: 1.4%
[6]; OD drop assay
  Lysozyme activity against Micrococcus lysodeikticus (in words): good activity
[6]; assay pH 6
  Lysozyme Activity against Micrococcus lysodeikticus as measured by Optical Density Drop: ++
[7]; at temperatures as high as 99° C.
  Time for which the lysozyme is stable: at least 90 seconds
[7]; heat treatment 30 sec at 60 °C
  Residual activity (%): 93%
[7]; heat treatment 30 sec at 65 °C
  Residual activity (%): 99%
[7]; heat treatment 30 sec at 70 °C
  Residual activity (%): 94%
[7]; heat treatment 30 sec at 75 °C
  Residual activity (%): 101%
[7]; heat treatment 30 sec at 80 °C
  Residual activity (%): 94%
[7]; heat treatment 30 sec at 85 °C
  Residual activity (%): 98%
[7]; heat treatment 30 sec at 90 °C
  Residual activity (%): 94%
[7]; heat treatment 30 sec at 95 °C
  Residual activity (%): 98%
[7]; heat treatment 30 sec at 99 °C
  Residual activity (%): 93%
[7]; heat treatment 60 sec at 60 °C
  Residual activity (%): 99%
[7]; heat treatment 60 sec at 65 °C
  Residual activity (%): 97%
[7]; heat treatment 60 sec at 70 °C
  Residual activity (%): 93%
[7]; heat treatment 60 sec at 75 °C
  Residual activity (%): 96%
[7]; heat treatment 60 sec at 80 °C
  Residual activity (%): 98%
[7]; heat treatment 60 sec at 85 °C
  Residual activity (%): 94%
[7]; heat treatment 60 sec at 90 °C
  Residual activity (%): 99%
[7]; heat treatment 60 sec at 95 °C
  Residual activity (%): 94%
[7]; heat treatment 60 sec at 99 °C
  Residual activity (%): 97%
[7]; heat treatment 90 sec at 60 °C
  Residual activity (%): 96%
[7]; heat treatment 90 sec at 65 °C
  Residual activity (%): 99%
[7]; heat treatment 90 sec at 70 °C
  Residual activity (%): 98%
[7]; heat treatment 90 sec at 75 °C
  Residual activity (%): 98%
[7]; heat treatment 90 sec at 80 °C
  Residual activity (%): 97%
[7]; heat treatment 90 sec at 85 °C
  Residual activity (%): 100%
[7]; heat treatment 90 sec at 90 °C
  Residual activity (%): 97%
[7]; heat treatment 90 sec at 95 °C
  Residual activity (%): 102%
[7]; heat treatment 90 sec at 99 °C
  Residual activity (%): 89%
